Data on two molecules can be found in article PMC2174547 (The Journal of Cell Biology, 2000).

For experiment [1], the target named is 6xHis-PEX19 (human) (UniProt P40855). The experiment is described as follows: far-Western, overlay or dot blot.
The target of experiment [2] is T1, 6xHis-PEX19 (human, UniProt P40855 1-299).
T1 sequence: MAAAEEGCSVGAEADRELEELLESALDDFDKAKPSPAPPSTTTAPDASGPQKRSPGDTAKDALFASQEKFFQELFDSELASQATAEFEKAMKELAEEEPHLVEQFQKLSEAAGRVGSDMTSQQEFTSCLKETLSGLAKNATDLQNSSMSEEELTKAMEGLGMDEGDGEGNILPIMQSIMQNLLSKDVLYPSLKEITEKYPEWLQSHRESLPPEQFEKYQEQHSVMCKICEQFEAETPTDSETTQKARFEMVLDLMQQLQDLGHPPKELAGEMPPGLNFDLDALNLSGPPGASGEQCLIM
As to the kind of experiment: far-Western, overlay or dot blot.

“And” between values parts separate entries of the source, which are not always exact repeats. Equal entries are not always repeated.

In general, Kd refers to a measure of binding affinity in units of concentration. By IC50 is commonly meant the concentration at which inhibition is half-maximal. The low end stands for greater potency in that assay, the high end for weaker potency in that assay.

In the case of “6xHis-PEX14 (from UniProt O75381 1-377) (natural protein)”, in experiment [1], the dissociation constant (Kd) is 350 nM and 800 nM and 500 nM.

B1: 6xHis-PEX14 amino acids 1–147 (domain or fragment)
chain: MASSEQAEQPSQPSSTPGSENVLPREPLIATAVKFLQNSRVRQSPLATRRAFLKKKGLTDEEIDMAFQQSGTAADEPSSLGPATQVVPVQPPHLISQPYSPAGSRWRDYGALAIIMAGIAFGFHQLYKKYLLPLILGGREDRKQLER
In experiment [2], B1 displayed a 50% inhibitory concentration (IC50) of 30000 nM.
